Results taken from patent US20250145691A1 (University of Texas, published 2025).

Legend:
NTD = target: T1, NTD (UniProt P0DTC2 14-303); assay: ELISA and biolayer interferometry (BLI)
T1 construct: domain: NTD; also called N-terminal domain

RBD = RBD (SARS-CoV-2, UniProt P0DTC2 319-591); assay: ELISA and biolayer interferometry (BLI)

B1: antibody SC45 (antibody, V domains shown)
VH: QVQLQESGPGLVKSSETLSLTCTVSGGSISSYYWSWIRQPPGKGLEWIGCIYSSGSTNYNPSLKSRVTISVDSSKNQFSLRLNSVTAADTAVYYCARHKGTDFWSGYSFTPRGGWFDPWGQGALVSVSS
VL: DIQMTQSPSSLSASVGDRVTITCRASQSISSYLNWYQQKPGKAPKLLIYGASNLQSGVPSRFSGSGSETDFTLTISSLQPEDFASYYCQQSHSIPVTFGQGTKLEIK
B1: no binding (NTD); no binding (RBD).
